Molecular target: spike of variant B.1.351 v.1 on pseudovirus
Assay: cell-based or functional assay

CB6 (antibody) was tested, and the neutralization IC50 was greater than 10 µg/mL.

For LY-CoV555 (antibody), the neutralization IC50 was greater than 10 µg/mL.
